Experimental data as given in paper PMC9408853.

Legend:
[1] = molecular target: human C-C chemokine receptor type 7 (human) (UniProt P32248)
[2] = molecular target: CCR7-LgBiT (human) (UniProt P32248)
[3] = molecular target: human C-C chemokine receptor type 7 (human) (UniProt P32248); remark: listed apart in the source

cellular electrical impedance of HEK293 cells stably expressing CCR7, AUC[0–120], pEC50 [1]	ligand-induced β-arrestin2 recruitment to CCR7 (NanoBiT, CCR7-LgBiT with SmBiT-β-arrestin2 in HEK293 cells), pEC50 [2]	G protein activation, Gαi-1 (nanoBRET, Gαi1-91-NLuc with Gγ2-LSS-mKATE2) in HEK293 cells stably expressing CCR7, pEC50 [3]	G protein activation, Gαi-2 (nanoBRET, Gαi2-91-NLuc with Gγ2-LSS-mKATE2) in HEK293 cells stably expressing CCR7, pEC50 [3]	G protein activation, Gαi-3 (nanoBRET, Gαi3-91-NLuc with Gγ2-LSS-mKATE2) in HEK293 cells stably expressing CCR7, pEC50 [3]	inhibition of forskolin-induced cAMP production (GloSensor) in HEK293 cells stably expressing CCR7, pEC50 [3]	ligand-induced CCR7 internalisation (flow cytometry of surface CCR7, 30 min at 37 °C) in HEK293 cells stably expressing CCR7, pEC50 [3]	Substance
8.2 pEC50 (M)	7.61 pEC50 (M)	8.64 pEC50 (M)	9.02 pEC50 (M)	9.61 pEC50 (M)	7.83 pEC50 (M)	7.7 pEC50 (M)	C-C chemokine ligand 19 (from UniProt Q99731 22-98)
6.93 pEC50 (M)	6.48 pEC50 (M)	8.44 pEC50 (M)	8.72 pEC50 (M)	9.34 pEC50 (M)	7.67 pEC50 (M)	6.73 pEC50 (M)	C-C chemokine ligand 21 (from UniProt O00585 24-134)
